{"source": "patent US20090318350A1", "about": "“PAN-HER ANTAGONISTS AND METHODS OF USE” (published 2009)", "binders": {"B1": {"name": "Heregulin (purified protein) (ligand)", "chain": "SHLVKCAEKEKTFCVNGGECFMVKDLSNPSRYLCKCPNEFTGDRCQNYVMASFYKHLGIEFMEAEELY"}, "B2": {"name": "EGF (purified protein) (ligand)", "chain": "HHHHHHIEGRNSDSECPLSHDGYCLHDGVCMYIEALDKYACNCWGYIGERCQYRDLKWWELR"}}, "key": {"[1]": {"target": "HER3 receptor (human, UniProt P21860)", "test": "cell-based or functional assay"}, "[2]": {"target": "human epidermal growth factor receptor (EGFR) (human, UniProt P00533)", "test": "cell-based or functional assay"}}}
{"binder": "B1", "values": [{"measurement": "Calculated cell proliferation (EC50; picomolar)", "setting": "[1]", "result": 6150, "unit": "picomolar"}]}
{"binder": "B2", "values": [{"measurement": "Calculated cell proliferation (EC50; picomolar)", "setting": "[2]", "result": 1150, "unit": "picomolar"}]}
